In PMC11787825:
Like-named read-outs stand apart in the source and are kept apart here.

Tests used:
Assay in all cases: cryo-EM structure
[1] = target: T1, HSV-1 Pol (PolΔN42);UL42 (UL42ΔC340) (Herpes simplex virus 1 (strain …, UniProt H9E937;H9E949 43-1235;2-340, |))
[2] = target: T1, HSV-1 Pol (PolΔN42);UL42 (UL42ΔC340); remark: listed apart in the source
[3] = target: T1, HSV-1 Pol (PolΔN42);UL42 (UL42ΔC340); remark: listed apart in the source

B1: PT1 (dsDNA)
DNA 1: GATTACGAATTCGAGCTCGGTACCCGGGGATC
DNA 2: CACACACACACACACACAGATCCCCGGGTACCGAGCTCGAATTCGTAATC
modifications: primer 3'-terminal dideoxycytidine (ddC)
B1: binds [1].

B2: PT3 (dsDNA)
DNA 1: GATTACGAATTCGAGCTCGGTACCCGGGGATCG
DNA 2: CACACACACACACACACAGATCCCCGGGTACCGAGCTCGAATTCGTAATC
modifications: phosphorothioate bonds at primer ends (after nt 1 and before the 3'-terminal G)
B2: binds [2].

B3: PT2 (dsDNA)
DNA 1: GATTACGAATTCGAGCTCGGTACCCGGGGATC
DNA 2: CACACACACACACACACCGATCCCCGGGTACCGAGCTCGAATTCGTAATC
modifications: primer 3'-terminal dideoxycytidine (ddC)
B3: binds [3].
